From patent US20120288878A1

Tests used:
[1] = molecular target: mutant membrane-bound TNFα on stably transfected CHO cells (B-220 cells) (UniProt P01375); assay: FACS, gate P4: CHO cells bound to anti-CD19 beads (FIG. 3 middle panel)
[2] = molecular target: mutant membrane-bound TNFα on stably transfected CHO cells (B-220 cells) (UniProt P01375); assay: FACS, gate P4: CHO cells bound to anti-CD19 beads, mixed beads (FIG. 4)

UniProt P01375, sequence (P01375 other isoform, or with tags, fused parts or gaps mutant limits assumed): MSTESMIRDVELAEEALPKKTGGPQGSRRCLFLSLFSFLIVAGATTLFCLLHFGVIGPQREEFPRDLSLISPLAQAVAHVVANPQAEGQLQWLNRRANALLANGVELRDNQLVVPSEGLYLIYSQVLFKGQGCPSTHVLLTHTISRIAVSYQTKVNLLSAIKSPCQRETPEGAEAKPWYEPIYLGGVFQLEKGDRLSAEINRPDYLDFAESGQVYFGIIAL

In the case of “APC-labeled unrelated antibody (anti-CD19) coated on beads”, the # Events [1] was 6 events and the # Events [2] was 2 events.
